T1: LRRC7, Q96NW7
T1 sequence (Q96NW7 1440-1537, limits assumed, looked up): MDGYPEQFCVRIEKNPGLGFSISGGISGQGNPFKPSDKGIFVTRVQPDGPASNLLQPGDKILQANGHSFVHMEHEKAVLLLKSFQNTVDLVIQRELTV

T2: MPP6, Q9NZW5
T2 sequence (Q9NZW5 125-219, limits assumed, looked up): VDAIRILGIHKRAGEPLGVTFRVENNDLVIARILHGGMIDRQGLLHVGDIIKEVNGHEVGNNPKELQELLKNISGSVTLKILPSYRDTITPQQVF

T3: NHERF3_1, Q5T2W1
T3 sequence (Q5T2W1 4-100, limits assumed, looked up): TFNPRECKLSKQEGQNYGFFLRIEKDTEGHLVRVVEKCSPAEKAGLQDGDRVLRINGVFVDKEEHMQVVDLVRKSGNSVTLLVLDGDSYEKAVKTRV

T4: NHERF3_3, Q5T2W1
T4 sequence (Q5T2W1 238-333, limits assumed, looked up): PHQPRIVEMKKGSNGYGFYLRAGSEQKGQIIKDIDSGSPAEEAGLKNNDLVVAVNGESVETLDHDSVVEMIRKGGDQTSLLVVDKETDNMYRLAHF

T5: PARD3B_1, Q8TEW8
T5 sequence (Q8TEW8 196-299, limits assumed, looked up): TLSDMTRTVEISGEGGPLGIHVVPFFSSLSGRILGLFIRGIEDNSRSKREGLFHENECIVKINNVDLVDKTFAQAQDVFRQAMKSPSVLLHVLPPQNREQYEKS

T6: SNTG1, Q9NSN8
T6 sequence (Q9NSN8 52-150, limits assumed, looked up): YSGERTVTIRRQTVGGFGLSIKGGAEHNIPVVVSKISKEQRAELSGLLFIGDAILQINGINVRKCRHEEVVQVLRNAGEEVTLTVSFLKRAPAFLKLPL

T7: SNTG2, Q9NY99
T7 sequence (Q9NY99 68-166, limits assumed, looked up): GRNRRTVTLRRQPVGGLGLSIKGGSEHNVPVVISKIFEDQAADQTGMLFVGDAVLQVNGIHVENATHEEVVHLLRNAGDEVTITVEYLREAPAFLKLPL

T8: TIAM2, Q8IVF5
T8 sequence (Q8IVF5 885-986, limits assumed, looked up): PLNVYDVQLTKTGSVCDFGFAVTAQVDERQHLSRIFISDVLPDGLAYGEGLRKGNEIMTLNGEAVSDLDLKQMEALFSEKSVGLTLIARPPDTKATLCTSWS


Experiments:
Assay in all cases: holdup assay
Parameters in all cases: key: below the threshold = too weak to quantify, mostly under pKd 3.1 to 4
Conditions in all cases: plain residues with an end cap or a label only (N-terminal biotin on a linker: ado-ado)
ARHGEF12, Q9NZN5-2 = target: ARHGEF12, Q9NZN5-2
DLG1_2, Q12959 = target: DLG1_2, Q12959
DLG1_3, Q12959 = target: DLG1_3, Q12959
DLG4_2, P78352 = target: DLG4_2, P78352
DLG4_3, P78352 = target: DLG4_3, P78352
GRASP, Q7Z6J2 = target: GRASP, Q7Z6J2
GRIP2_6, Q9C0E4 = target: GRIP2_6, Q9C0E4
IL16_1, Q14005 = target: IL16_1, Q14005
IL16_4, Q14005 = target: IL16_4, Q14005
Inadl_1, Q8NI35 = target: Inadl_1, Q8NI35
Inadl_3, Q8NI35 = target: Inadl_3, Q8NI35
LAP2, Q96RT1 = target: LAP2, Q96RT1
LDB3, O75112 = target: LDB3, O75112
LIMK2, P53671 = target: LIMK2, P53671
LRRC7, Q96NW7 = target: T1, LRRC7, Q96NW7
MAST2, Q6P0Q8 = target: MAST2, Q6P0Q8
MPP6, Q9NZW5 = target: T2, MPP6, Q9NZW5
NHERF3_1, Q5T2W1 = target: T3, NHERF3_1, Q5T2W1
NHERF3_3, Q5T2W1 = target: T4, NHERF3_3, Q5T2W1
NHERF4_4, Q86UT5 = target: NHERF4_4, Q86UT5
PARD3B_1, Q8TEW8 = target: T5, PARD3B_1, Q8TEW8
PARD3_3, Q8TEW0 = target: PARD3_3, Q8TEW0
PICK1, Q9NRD5 = target: PICK1, Q9NRD5
PTPN3, P26045 = target: PTPN3, P26045
SCRIB_1, Q14160 = target: SCRIB_1, Q14160
SCRIB_3, Q14160 = target: SCRIB_3, Q14160
SNTG1, Q9NSN8 = target: T6, SNTG1, Q9NSN8
SNTG2, Q9NY99 = target: T7, SNTG2, Q9NY99
TIAM2, Q8IVF5 = target: T8, TIAM2, Q8IVF5
TJP1_3, Q07157 = target: TJP1_3, Q07157
Chain of TJP1_3, Q07157 (Q07157 416-512): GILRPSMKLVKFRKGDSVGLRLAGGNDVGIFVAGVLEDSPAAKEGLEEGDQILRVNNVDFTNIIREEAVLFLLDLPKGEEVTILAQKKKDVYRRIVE

Chain of NHERF4_4, Q86UT5 (Q86UT5 464-550): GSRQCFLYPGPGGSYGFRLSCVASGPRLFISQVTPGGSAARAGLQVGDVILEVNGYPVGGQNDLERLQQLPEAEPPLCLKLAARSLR
Chain of PICK1, Q9NRD5 (Q9NRD5 17-115): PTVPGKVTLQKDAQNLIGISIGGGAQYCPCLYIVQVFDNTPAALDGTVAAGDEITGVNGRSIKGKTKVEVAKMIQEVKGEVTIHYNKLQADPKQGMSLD
Chain of PARD3_3, Q8TEW0 (Q8TEW0 582-685): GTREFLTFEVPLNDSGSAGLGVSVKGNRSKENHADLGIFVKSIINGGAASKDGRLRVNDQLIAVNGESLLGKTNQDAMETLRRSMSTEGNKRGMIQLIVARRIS
Chain of ARHGEF12, Q9NZN5-2 (Q9NZN5 other isoform, or with tags, fused parts or gaps): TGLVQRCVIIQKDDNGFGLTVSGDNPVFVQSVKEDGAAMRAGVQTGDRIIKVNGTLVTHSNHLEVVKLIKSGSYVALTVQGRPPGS
Chain of PTPN3, P26045 (P26045 505-587): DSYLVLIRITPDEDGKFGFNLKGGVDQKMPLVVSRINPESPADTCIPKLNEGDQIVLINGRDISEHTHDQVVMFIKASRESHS
Chain of DLG1_2, Q12959 (Q12959 314-412): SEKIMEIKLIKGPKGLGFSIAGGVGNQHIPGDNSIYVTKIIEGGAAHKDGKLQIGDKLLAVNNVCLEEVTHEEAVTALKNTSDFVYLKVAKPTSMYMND
Chain of LAP2, Q96RT1 (Q96RT1 other isoform, or with tags, fused parts or gaps): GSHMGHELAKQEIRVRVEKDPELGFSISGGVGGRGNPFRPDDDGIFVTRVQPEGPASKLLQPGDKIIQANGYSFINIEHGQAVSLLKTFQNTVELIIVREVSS
Chain of MAST2, Q6P0Q8 (Q6P0Q8 1099-1202): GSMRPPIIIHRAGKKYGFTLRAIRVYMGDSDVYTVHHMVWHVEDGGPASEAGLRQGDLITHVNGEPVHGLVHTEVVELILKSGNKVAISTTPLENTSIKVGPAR
Chain of LIMK2, P53671 (P53671 143-248): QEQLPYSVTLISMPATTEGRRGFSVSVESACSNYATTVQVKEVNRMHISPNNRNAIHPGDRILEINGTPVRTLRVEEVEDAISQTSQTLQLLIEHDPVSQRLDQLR
Chain of GRIP2_6, Q9C0E4 (Q9C0E4 648-740): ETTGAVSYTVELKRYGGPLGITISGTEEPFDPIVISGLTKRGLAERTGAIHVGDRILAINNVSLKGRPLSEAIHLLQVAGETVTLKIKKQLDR
Chain of SCRIB_3, Q14160 (Q14160 999-1103): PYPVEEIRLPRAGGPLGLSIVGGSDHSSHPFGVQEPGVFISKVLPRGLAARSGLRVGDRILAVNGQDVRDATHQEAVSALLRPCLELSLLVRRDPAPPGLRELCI
Chain of DLG4_3, P78352 (P78352 306-403): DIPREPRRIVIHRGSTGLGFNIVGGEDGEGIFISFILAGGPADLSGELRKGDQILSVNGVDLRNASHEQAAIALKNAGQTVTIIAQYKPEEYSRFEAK
Chain of LDB3, O75112 (O75112 1-94): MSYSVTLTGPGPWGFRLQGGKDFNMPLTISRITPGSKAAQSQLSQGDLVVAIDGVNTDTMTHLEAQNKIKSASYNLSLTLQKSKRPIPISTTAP
Chain of DLG4_2, P78352 (P78352 155-259): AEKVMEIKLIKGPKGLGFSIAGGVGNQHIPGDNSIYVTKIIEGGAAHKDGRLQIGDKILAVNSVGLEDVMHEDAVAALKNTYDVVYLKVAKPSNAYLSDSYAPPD
Chain of DLG1_3, Q12959 (Q12959 457-571): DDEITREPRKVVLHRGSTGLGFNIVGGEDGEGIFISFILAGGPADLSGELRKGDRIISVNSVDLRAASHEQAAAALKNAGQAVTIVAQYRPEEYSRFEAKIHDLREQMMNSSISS
Chain of IL16_1, Q14005 (Q14005 210-306): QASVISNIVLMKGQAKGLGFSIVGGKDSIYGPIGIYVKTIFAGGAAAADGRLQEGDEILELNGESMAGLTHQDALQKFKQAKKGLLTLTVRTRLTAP
Chain of GRASP, Q7Z6J2 (Q7Z6J2 96-193): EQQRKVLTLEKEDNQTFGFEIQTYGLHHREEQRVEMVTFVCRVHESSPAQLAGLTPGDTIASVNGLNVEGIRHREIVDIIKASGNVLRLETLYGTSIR
Chain of Inadl_3, Q8NI35 (Q8NI35 359-469): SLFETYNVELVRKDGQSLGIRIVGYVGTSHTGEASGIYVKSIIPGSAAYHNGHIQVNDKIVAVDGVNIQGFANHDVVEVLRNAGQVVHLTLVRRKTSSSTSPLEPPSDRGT
Chain of Inadl_1, Q8NI35 (Q8NI35 113-229): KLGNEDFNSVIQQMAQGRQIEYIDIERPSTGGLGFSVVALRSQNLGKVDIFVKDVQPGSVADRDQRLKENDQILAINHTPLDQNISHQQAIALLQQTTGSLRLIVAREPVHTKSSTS
Chain of SCRIB_1, Q14160 (Q14160 718-814): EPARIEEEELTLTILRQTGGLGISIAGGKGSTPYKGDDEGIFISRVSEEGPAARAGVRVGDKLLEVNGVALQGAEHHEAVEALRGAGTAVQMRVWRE
Chain of IL16_4, Q14005 (Q14005 1229-1329): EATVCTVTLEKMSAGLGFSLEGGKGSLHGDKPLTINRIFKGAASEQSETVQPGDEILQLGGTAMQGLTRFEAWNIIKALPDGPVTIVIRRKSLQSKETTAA

pKd (ARHGEF12, Q9NZN5-2) | pKd (DLG1_2, Q12959) | pKd (DLG1_3, Q12959) | pKd (DLG4_2, P78352) | pKd (DLG4_3, P78352) | pKd (GRASP, Q7Z6J2) | pKd (GRIP2_6, Q9C0E4) | pKd (IL16_1, Q14005) | pKd (IL16_4, Q14005) | pKd (Inadl_1, Q8NI35) | pKd (Inadl_3, Q8NI35) | pKd (LAP2, Q96RT1) | pKd (LDB3, O75112) | pKd (LIMK2, P53671) | pKd (LRRC7, Q96NW7) | pKd (MAST2, Q6P0Q8) | pKd (MPP6, Q9NZW5) | pKd (NHERF3_1, Q5T2W1) | pKd (NHERF3_3, Q5T2W1) | pKd (NHERF4_4, Q86UT5) | Binder | further results
4.27 | below the threshold | below the threshold | below the threshold | below the threshold | 4.31 | below the threshold | below the threshold | 3.8 | below the threshold | below the threshold | below the threshold | below the threshold | below the threshold | below the threshold | 5.76 | below the threshold | 4.42 | below the threshold | below the threshold | PRISRSQSEL [CCDC134, Q9H6E4] | pKd (PARD3B_1, Q8TEW8): below the threshold; pKd (PARD3_3, Q8TEW0): below the threshold; pKd (PICK1, Q9NRD5): 4.14; pKd (PTPN3, P26045): 4.22; pKd (SCRIB_1, Q14160): below the threshold; pKd (SCRIB_3, Q14160): 4.06; pKd (SNTG1, Q9NSN8): below the threshold; pKd (SNTG2, Q9NY99): below the threshold; pKd (TIAM2, Q8IVF5): 3.86; pKd (TJP1_3, Q07157): below the threshold
3.56 | below the threshold | below the threshold | below the threshold | below the threshold | below the threshold | below the threshold | below the threshold | below the threshold | below the threshold | below the threshold | below the threshold | below the threshold | below the threshold | below the threshold | 4.75 | below the threshold | 4.01 | below the threshold | below the threshold | QPCFNKLFPL [LPXN, O60711] | pKd (PARD3B_1, Q8TEW8): 3.75; pKd (PARD3_3, Q8TEW0): below the threshold; pKd (PICK1, Q9NRD5): below the threshold; pKd (PTPN3, P26045): below the threshold; pKd (SCRIB_1, Q14160): below the threshold; pKd (SCRIB_3, Q14160): below the threshold; pKd (SNTG1, Q9NSN8): below the threshold; pKd (SNTG2, Q9NY99): below the threshold; pKd (TIAM2, Q8IVF5): below the threshold; pKd (TJP1_3, Q07157): below the threshold

Source: article PMC9482650, “Quantitative fragmentomics allow affinity mapping of interactomes” (Nature Communications, 2022)
